# Source: patent publication US20170157245A1, “TREATMENT OF GASTRIC CANCER” (OncoMed Pharmaceutlcals, Inc., priority 2014, published 2017)
# Positions count from the first letter of the chain named.
# B1: demcizumab: anti-DLL4 antibody, demcizumab (also known as OMP-21M18); heavy chain variable region SEQ ID NO:9 (antibody, chains of the INN, looked up, V domains shown)
# VH: QVQLVQSGAEVKKPGASVKISCKASGYSFTAYYIHWVKQAPGQGLEWIGYISSYNGATNYNQKFKGRVTFTTDTSTSTAYMELRSLRSDDTAVYYCARDYDYDVGMDYWGQGTLVTVSS
# VL: DIVMTQSPDSLAVSLGERATISCRASESVDNYGISFMKWFQQKPGQPPKLLIYAASNQGSGVPDRFSGSGSGTDFTLTISSLQAEDVAVYYCQQSKEVPWTFGGGTKVEIK
# B2: 219R45-MB-21R83: anti-hVEGF/anti-hDLL4 bispecific antibody; heavy chains SEQ ID NO:7 and SEQ ID NO:62, two light chains SEQ ID NO:8 (antibody, chains of the INN, looked up, V domains shown)
# VH: B1 VH with S53N, G56R
# VL: B1 VL
# VH2: QVQLVQSGAEVKKPGASVKVSCKASGYTFTNYWMHWVRQAPGQGLEWMGDINPSNGRTSYKEKFKRRVTLSVDKSSSTAYMELSSLRSEDTAVYFCTIHYDDKYYPLMDYWGQGTLVTVSS
# VL2: B1 VL
# Tests used:
# xenograft tumor models = details: Hoey et al., 2009, U.S. Pat. No. 7,750,124; cited from earlier work
# [1] = test system: OMP-STM1 gastric tumor xenografts; test: Inhibition of OMP-STM1 gastric tumor growth in vivo; details: subcutaneous xenograft in NOD/SCID mice, 3 mg/kg weekly intraperitoneally for 4 weeks, given plus anti-mVEGF/anti-mDLL4 bispecific antibody, compared with control, anti-DLL4 and anti-VEGF antibodies
# Experimental: FIG. 1. […] OMP-STM1 gastric tumor cells were injected subcutaneously into NOD/SCID mice. Mice were treated with control antibody (-[…]-), anti-hDLL4 antibody 21M18 (demcizumab) plus anti-mDLL4 antibody (-▪-), anti-VEGF antibody bevacizumab plus anti-mVEGF antibody (-⋄-), or anti-VEGF/anti-DLL4 bispecific antibody 219R45-MB-21M83 (305B83) plus anti-mDLL4/anti-mVEGF antibody (-▾-). Data is shown as tumor volume […] over days post-treatment. Antibodies were administered intraperitoneally at a dose of 3 mg/kg once a week. * indicates p<0.05 vs control antibody as assessed by two-way ANOVA.
# Single cell suspensions of OMP-STM1 gastric tumor xenografts (50,000 cells) were injected subcutaneously into the flanks of 6-8 week old NOD/SCID mice. Tumors were allowed to grow for 34 days until they reached an average volume of 110 mm^3. The mice were randomized (n=8 per group) and treated with anti-hDLL4 antibody 21M18 (demcizumab) plus anti-mDLL4, anti-hVEGF antibody bevacizumab plus anti-mVEGF, anti-hVEGF/anti-hDLL4 bispecific antibody 219R45-MB-21R83 (305B83) plus an anti-mVEGF/anti-mDLL4 bispecific antibody, or control antibody. Antibodies were dosed at 3 mg/kg weekly by intraperitoneal injection for 4 weeks. Tumor growth was monitored and tumor volumes were measured with electronic calipers at the indicated time points. Data are expressed as mean±S.E.M.
molecule,measurement,setting,value
B1,frequency of cancer stem cells,xenograft tumor models,reduce the frequency of cancer stem cells
same,tumor growth inhibition,xenograft tumor models,inhibit tumor growth
B2,inhibition of OMP-STM1 gastric tumor growth (tumor volume),"[1]; listed as 219R45-MB-21M83, 3 mg/kg",Inhibition of gastric tumor growth in vivo
same,inhibition of OMP-STM1 gastric tumor growth (tumor volume),"[1]; listed as bispecific anti-VEGF/anti-DLL4 antibody, 3 mg/kg",greater inhibition of OMP-STM1 gastric tumor growth than either anti-DLL4 antibodies alone or anti-VEGF antibodies alone
